Measurements reported in publication PMC6208366.

Target: IANBD-labeled Hsp90 M362C (human)
Experiment: stopped-flow fluorescence; IANBD-labeled Hsp90 M362C (1 µM) mixed with equal volumes of FKBP51, FK1-FK2, FK2-TPR or buffer, pseudo-first-order, 37 °C, 25 mM sodium phosphate/300 mM NaCl pH 7.2; rates as fluorescence increase at 20 s

- ΔF (rate of Hsp90 binding, fluorescence increase): 0.0021 s⁻¹
B1: full-length human FKBP51 (natural protein)
chain: MTTDEGAKNNEESPTATVAEQGEDITSKKDRGVLKIVKRVGNGEETPMIGDKVYVHYKGKLSNGKKFDSSHDRNEPFVFSLGKGQVIKAWDIGVATMKKGEICHLLCKPEYAYGSAGSLPKIPSNATLFFEIELLDFKGEDLFEDGGIIRRTKRKGEGYSNPNEGATVEIHLEGRCGGRMFDCRDVAFTVGEGEDHDIPIGIDKALEKMQREEQCILYLGPRYGFGEAGKPKFGIEPNAELIYEVTLKSFEKAKESWEMDTKEKLEQAAIVKEKGTVYFKGGKYMQAVIQYGKIVSWLEMEYGLSEKESKASESFLLAAFLNLAMCYLKLREYTKAVECCDKALGLDSANEKGLYRRGEAQLLMNEFESAKGDFEKVLEVNPQNKAARLQISMCQKKAKEHNERDRRIYANMFKKFAEQDAKEEANKAMGKKTSEGVTNEKGTDSQAMEEEKPEGHV
